Results taken from patent US6045809A, “Pharmaceutical compositions containing a superoxide dismutase” (Institut de Recherches Franctales, priority 1995, dated 2000).

Experiments:
[1] = Erythrocyte SOD kinetics in anaesthetized rats after oral administration (gavage); set-up: species or system rat (male OFA, Sprague-Dawley); settings: rat, in vivo
Experimental: (§1) The kinetics of the plasmatic SOD are analyzed in anaesthetized rats after the oral or subcutaneous administration of free SOD, liposomal SOD or SOD in the form of a composition according to the invention.
(§2) The rats used are male OFA, Sprague-Dawley rats which are devoid of pathogenic germs, weigh 300 to 400 g and are not of the same blood type (IFFA CREDO breed).
bovine erythrocyte SOD (Allerbiodose®) 1-2-4 mg/ml, in NaCl 0.9%,
bovine erythrocyte SOD 1-2-4 mg/ml+plant ceramides 1% (Inocosm), in NaCl 0.9%, according to the invention,
liposomal bovine erythrocyte SOD 1-2-4 mg/ml,
(§3) bovine erythrocyte SOD+gliadin, according to the invention.
The gavage is performed on the animals (n=4) at T0 with a volume of 1 ml of solution or suspension to be studied, in 0.9% NaCl solution. This gavage is performed using a cannula mounted on a 1 ml syringe and introduced into the buccal cavity of the rat.
(§4) Each series of experiments is carried out on 4 animals per dose, the control groups always being treated in parallel for each experiment.
(§5) Once the gavage (or the subcutaneous injection) has been performed on the animals, the latter are anaesthetized by the slow intraperitoneal injection of thiopental (0.1 ml/100 g).
The samples are taken every hour for 6 hours (400 μl) via the one-way tap. The blood is collected in heparinated Eppendorf tubes (20 μl of heparin 1000 IU/ml). It is then centrifuged for 5 min at 4000 rpm. The plasma is then discarded and replaced with NaCl 0.9%. The tubes are centrifuged again for 5 min at 4000 rpm. The red blood cells are thus washed three times in succession.
The assays of the enzymatic activity of the erythrocyte SOD (of each form) are performed on each control or treated sample.
The erythrocytes are appropriately diluted in distilled water (+0.5 ml of 1% Triton solution) so that the inhibition obtained in the study tube is about 50% of that in the control tube.
The results obtained in IU SOD/ml are reported in IU SOD/mg haemoglobin. The haemoglobin is assayed by spectrophotometry at 405 nm.

rat paw oedema = assay: λ carrageenan-induced paw oedema after oral administration (gavage); format: in vivo; settings: dose of 0.5 mg/kg
Experimental: To study the comparative kinetics of the anti-inflammatory action of a free form of SOD and a composition according to the invention, at different concentrations.
2 gavages are performed per day (morning and evening).
Injection of 0.1 ml of λ carrageenan 1% in the paw pad.
The measurements are made every hour for 6 hours.

granulocytes = assay: Granulocyte activation (production of superoxide anions after stimulation with zymosan or PMA); format: cell-based
Experimental: The samples are those collected 3 hours after pleurisy.
Reagent control: PBS^+ (0.65 ml)+cytochrome C 5 mg/ml (0.15 ml).
Cell control: PBS^+ (0.65 ml)+cytochrome C 5 mg/ml (0.15 ml)+G 10 M/ml (0.2 ml).
Test: PBS^+ (0.45 ml)+cytochrome C 5 mg/ml (0.15 ml)+ZO or PMA (0.2 ml), with: NaCl control (column 1), SOD (column 2), Ceramide control (column 3), SOD+ceramides (column 4), Liposome control (column 5), Liposomal SOD (column 6).
Incubate for 15 minutes in a water bath at 37° C., with shaking,
stop the reaction for 10 minutes in an ice bath,
centrifuge for 5 minutes at 2000 rpm.

[2] = Erythrocyte SOD kinetics in anaesthetized rats after subcutaneous administration; set-up: species or system rat (male OFA, Sprague-Dawley); settings: rat, in vivo, sc
Experimental: as §1, §2
Subcutaneous administration:
bovine erythrocyte SOD (Allerbiodose®) 0.5-1-2 mg/ml, in NaCl 0.9%,
bovine erythrocyte SOD 0.5-1-2 mg/ml+plant ceramides 1% (Inocosm), in NaCl 0.9%, according to the invention,
liposomal bovine erythrocyte SOD 0.5-1-2 mg/ml,
as §3
The solutions or suspensions to be studied are administered at T0 by the injection of a volume of 0.3 ml (in 0.9% NaCl solution) behind the animal's head (n=4).
as §4, §5
The samples are taken every hour for 6 hours (400 μl) via the one-way tap. The blood is collected in heparinated Eppendorf tubes (20 μl of heparin 1000 IU/ml). It is then centrifuged for 5 min at 4000 rpm. […]

SOD: bovine erythrocyte SOD (Allerbiodose®), in NaCl 0.9%
Cmax (comparison in words) [1]: lower
Concentrations/passage of SOD after oral administration (in words) [1]: reaches high concentrations when administered orally
Tmax [1]: around 5 hours
Number of gavages from which the anti-inflammatory effect is observed (rat paw oedema): ≥ 4 gavages
Significance (P) of the anti-inflammatory role (granulocytes; by oral administration): < 0.05
Effect of oral administration on granulocyte activation (in words) (granulocytes; oral administration, FIGS. 18 to 20): inhibitory effect
Cmax (comparison in words) [2]: slightly lower
